From patent US6432920B1, “Nck SH3 binding peptides” (Cytogen Corporation, priority 1994, dated 2002)
“Also recorded” adds a separate entry of the source.

What was measured:
Src SH3-GST = molecular target: T1, Src SH3-GST (Homo sapiens, UniProt P12931); assay: Biotinylated synthetic peptide binding ELISA to immobilized Src SH3-GST; conditions: for binding to Src SH3 domain (Src SH3-GST): 10 μM biotinylated peptide, streptavidin-alkaline phosphatase ELISA, FIGS. 7 and 8; for relative specificity of binding for SH3 domains of different proteins: Src family versus Grb2, Crk, Abl, PLCγ SH3 domains, FIG. 8
T1 construct: Bacterially expressed Src SH3 glutathione-S-transferase (Src-GST) fusion protein was purified from bacterial lysates; made in house; host or cells: bacteria (pGEX vector)
Protocol: (§1) These biotinylated peptides were assayed for direct binding to immobilized Src SH3-GST. […] Furthermore, a strong correlation was observed between the similarity of a given peptide to the preferred core consensus sequence RPLP(P/M)LP (SEQ ID NO:96) and the peptide's affinity for Src SH3-GST.
(§2) The preparation of Src-GST fusion protein was first described by Smith and Johnson, in Gene (1988) 67:31, the disclosure of which is incorporated by reference herein. Briefly, pGEX-derived (Pharmacia, Piscataway, N.J.) constructs expressing GST fusion proteins containing the SH3 domains of Src, Grb2, Crk, Abl, or PLCγ were obtained from Dr. Channing Der (University of North Carolina at Chapel Hill); a construct expressing the SH3 domain of Yes was obtained from Dr. Marius Sudol (Rockefeller University). The use of the pGEX bacterial expression vector for the production of GST-SH3 fusion proteins is well-known to those in the art. See, e.g., Cicchetti, P. et al., in Science (1992) 257:803-806. Briefly, the coding region for a particular SH3 domain can be fused in-frame at the Bam HI site of pGEX-2T. Thus, fusion proteins were prepared as per the manufacturer's instructions, and quantified by Coomassie Blue staining of SDS-polyacrylamide gels. Microtiter wells were coated with 5-20 μg GST-SH3 fusion protein in 100 mM NaHCO3, pH 8.5, blocked with 100 mM NaHCO3 (pH 8.5) 1% BSA, and washed. All washes consisted of five applications of 1XPBS, 0.1% Tween 20, 0.1% BSA (Buffer A). Where appropriate, the amount of protein bound to each well was quantified with an anti-GST antibody-based ELISA (Pharmacia, Piscataway, N.J.), and with a GST-binding phage, isolated during the course of this work.
Bacterially expressed Src SH3 glutathione-S-transferase (Src-GST) fusion protein was purified from bacterial lysates using glutathione agarose 4B (Pharmacia), according to the manufacturer's instructions. Bound Src-GST fusion protein was eluted from the glutathione agarose with 10 mM glutathione in PBS. Microtiter wells were then coated with Src-GST fusion protein (1-10 μg/well, in 50 mM NaHCO3, pH 8.5) overnight at 4° C. To block non-specific binding of phage, 100 μL 1% BSA in 100 mM NaHCO3, pH 8.5, was added to each well and allowed to incubate at room temperature for 1 hour. The wells were then washed five times with 200 μL PBS, 0.1% Tween™ 20, 0.1% BSA (Buffer A).
(§3) Peptides were obtained from Research Genetics (Birmingham, Ala.), Chiron Mimotopes (Victoria, Australia), or synthesized by conventional techniques by Dr. J. Mark Carter of Cytogen Corporation (Princeton, N.J.). Peptide purity was assessed by HPLC and/or mass spectrometry. Biotinylated peptides were synthesized with either a KSGSG (SEQ ID NO:103) or a GSGS (SEQ ID NO:104) peptide linker (a spacer) between the biotin and the N-terminus of the peptide. Binding experiments were performed as above, excepting the use of 10 μM peptide instead of phage. Bound biotinylated peptide was detected with streptavidin conjugated to alkaline phosphatase (Sigma Chemical Co., St. Louis, Mo.). After one hour incubation period at room temperature, the wells were washed, and a solution of 3 mM p-nitrophenyl-phosphate (US Biochemicals, Cleveland, Ohio) in 50 mM NaCO3 (pH 9.8), and 50 mM MgCl2 was added and color allowed to develop. Signals were read with an ELISA plate reader (Molecular Devices, Menlo Park, Calif.) at 405 nm wavelength. Binding experiments were performed in triplicate.

PLCγ1 SH2SH3-GST = assay: Biotinylated synthetic peptide binding ELISA to immobilized PLCγ1 SH2SH3-GST; conditions: 10 μM biotinylated peptide, FIG. 8
Protocol: (§4) As mentioned above, the relative specificity of binding was explored. Thus, the relative binding of Src SH3-selected peptides to equal amounts of GST fusions to SH3 domains from different proteins was determined (FIG. 8). While all of the library-derived peptides bound the Src and Yes SH3 domains almost equally well, none of the peptides (with the exception of peptide T12.SRC3.1, the most divergent peptide tested) bound the SH3 domains of Grb2, Crk, Abl or PLCγ1 appreciably.
as §2, with “Briefly, the coding region for a particular SH3 domain can be fused in-frame at the Bam HI site of pGEX-2T.” left out, “Microtiter wells were coated with 5-20 μg GST-SH3 fusion protein in 100 mM NaHCO3, pH 8.5, blocked with 100 mM NaHCO3 (pH 8.5) 1% BSA, and washed. All washes consisted of five applications of 1XPBS, 0.1% Tween 20, 0.1% BSA (Buffer A).” left out
(§5) Peptides were obtained from Research Genetics (Birmingham, Ala.), Chiron Mimotopes (Victoria, Australia), or synthesized by conventional techniques by Dr. J. Mark Carter of Cytogen Corporation (Princeton, N.J.). Peptide purity was assessed by HPLC and/or mass spectrometry. […] Bound biotinylated peptide was detected with streptavidin conjugated to alkaline phosphatase (Sigma Chemical Co., St. Louis, Mo.). […] Signals were read with an ELISA plate reader (Molecular Devices, Menlo Park, Calif.) at 405 nm wavelength. […]

Xenopus laevis oocytes = assay: Progesterone-induced X. laevis oocyte maturation (germinal vesicle breakdown); type: cell-based; conditions: oocytes injected with 40 nL of 100 μM test peptide, 2 μg/mL progesterone; relative to water
Protocol: Briefly, Stage VI oocytes were prepared and injected as previously described (see, Kay, B. K., in Methods in Cell Biol. (1991) 36:663-669). Oocytes were injected with 40 nL of 100 μM test peptide or water. After injection, the oocytes were placed in 2 μg/mL progesterone (Sigma, St. Louis, MO) and scored hourly for germinal vesicle breakdown (GVBD). LAPPKPPLPEGEV is SEQ ID NO:70.
Moreover, Xenopus laevis oocytes injected with mRNA encoding constitutively active Src undergo progesterone-induced maturation at an accelerated rate relative to oocytes injected with water or c-Src mRNA. Unger, T. F. and Steele, R. E. in Mol. Cell. Biol. (1992) 12:5485-5498. To explore the ability of the library-derived Src SH3-binding peptides to exert a biochemical effect in vivo, the influence of the peptides on the maturation of Xenopus laevis oocytes was examined. […] The magnitude of this effect is roughly equivalent to that seen with injection of mRNA encoding constituitively active Src. See, e.g., FIG. 3B in Unger, T. F. and Steele, R. E., supra. […]
Segments of adult ovary were removed surgically and incubated in 0.1% collagenase type D (Boehringer Mannheim, Indianapolis, Ind.) in Ca^2+-free OR2 (82.5 mM NaCl, 2.5 mM KCl, 1.0 mM MgCl2, 1.0 mM Na2HPO4, 5.0 mM HEPES, and 3.8 mM NaOH, pH 7.6). […] Oocytes were scored at hourly time points for germinal vesicle breakdown (GVBD).

Grb2-GST = molecular target: T2, Grb2-GST (Homo sapiens, UniProt P62993); assay: Biotinylated synthetic peptide binding ELISA to immobilized Grb2-GST; conditions: 10 μM biotinylated peptide, FIG. 8
T2 construct: made in house; host or cells: bacteria (pGEX vector)
T2 sequence (P62993 whole entry): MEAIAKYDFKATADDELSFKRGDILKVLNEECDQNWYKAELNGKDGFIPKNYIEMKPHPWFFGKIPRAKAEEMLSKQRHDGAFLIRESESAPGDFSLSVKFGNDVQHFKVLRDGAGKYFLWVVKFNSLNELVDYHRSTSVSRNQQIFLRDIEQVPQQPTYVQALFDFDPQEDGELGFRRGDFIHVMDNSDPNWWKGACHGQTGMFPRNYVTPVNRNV
Protocol: as §4
as §2, with “Briefly, the coding region for a particular SH3 domain can be fused in-frame at the Bam HI site of pGEX-2T.” left out, “Microtiter wells were coated with 5-20 μg GST-SH3 fusion protein in 100 mM NaHCO3, pH 8.5, blocked with 100 mM NaHCO3 (pH 8.5) 1% BSA, and washed. All washes consisted of five applications of 1XPBS, 0.1% Tween 20, 0.1% BSA (Buffer A).” left out
as §5

Yes SH3-GST = molecular target: T3, Yes SH3-GST (Homo sapiens, UniProt P07947); assay: Biotinylated synthetic peptide binding ELISA to immobilized Yes SH3-GST; conditions: 10 μM biotinylated peptide, FIG. 8
T3 construct: a construct expressing the SH3 domain of Yes was obtained from Dr. Marius Sudol (Rockefeller University); made in house; host or cells: bacteria (pGEX vector)
T3 sequence (P07947 91-152 limits assumed): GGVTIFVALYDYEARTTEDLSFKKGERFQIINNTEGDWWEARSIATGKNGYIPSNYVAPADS
Protocol: as §1, §2, §3

[1] = molecular target: Src and PI-3′ Kinase SH3 domains; conditions: Yu et al., biased synthetic peptide library; read-out: binding affinity; cited from earlier work
[2] = molecular target: cellular Src of Xenopus laevis oocytes (Xenopus laevis); assay: cell-based or functional assay

| Molecule | binding to Src SH3 domain (Src SH3-GST) (Src SH3-GST) | relative specificity of binding for SH3 domains of different proteins (Src SH3-GST) | binding to Yes SH3 domain (Yes SH3-GST) (Yes SH3-GST) | further results |
| --- | --- | --- | --- | --- |
| ANPSPATRPLPTR [synthetic peptide of phage clone T12.SRC3.2] | comparable to the core consensus sequence | Src family specificity |  | binding to Src SH3 domain (Src SH3-GST) (Src SH3-GST; listed as APSPATRPLPTR): avid binding affinity |
| KISPPTPKPRPPRPLPV [reference compound] | much less well |  |  |  |
| VLKRPLPIPPVTR [synthetic peptide of phage clone T12.SRC3.6] | much more avidly; also recorded: strong binding affinities; also recorded: avid binding affinity | Src preferential | much more avidly | binding to PLCγ SH3 domain (PLCγ1 SH2SH3-GST) (PLCγ1 SH2SH3-GST): little binding affinities; rate of progesterone-induced oocyte maturation (germinal vesicle breakdown) (Xenopus laevis oocytes): faster rate; also recorded: increased rate; binding to Grb2 SH3 domain (Grb2-GST) (Grb2-GST): some binding affinities |
| RKLPPRPRR [“composite” peptide of Yu et al] |  |  |  | Kd [1]: 7.6 µM |
| LAPPKPPLPEGEV [proline-rich region of the cytoskeletal protein vinculin, control peptide, reference compound] | much less well |  |  | rate of progesterone-induced oocyte maturation (germinal vesicle breakdown) (Xenopus laevis oocytes): not |
| GPHRRLPPTPATR [synthetic peptide of phage clone T12.SRC3.3] | much more avidly; also recorded: avid binding affinity | specific to src family SH3 domains | much more avidly | binding to PLCγ SH3 domain (PLCγ1 SH2SH3-GST) (PLCγ1 SH2SH3-GST): little affinity; binding to Grb2 SH3 domain (Grb2-GST) (Grb2-GST): little affinity |
| RSTPRPLPMLPTTR [synthetic peptide of phage clone R8C.YES3.5] | much more avidly; also recorded: strong specific binding affinity | highly specific | much more avidly |  |
| GTVEPVPPPVPPRRRPESA [reference compound] | much less well |  |  |  |
| GILAPPVPPRNTR [synthetic peptide of phage clone T12.SRC3.1] | much more avidly; also recorded: binds generically; also recorded: avid binding affinity | binds generically to a broad range of SH3 domains; also recorded: more generic SH3 domain-binding characteristics | much more avidly | binding to PLCγ SH3 domain (PLCγ1 SH2SH3-GST) (PLCγ1 SH2SH3-GST): binds generically; binding to Grb2 SH3 domain (Grb2-GST) (Grb2-GST): binds generically |
| RPLPPLP | less effective; also recorded: only weakly |  |  |  |
| RSTPRPLPPLPTTR [representative consensus motif with flanking residues of R8C.YES3.5] | much more avidly; also recorded: strong specific binding affinity | highly specific | much more avidly |  |
| VLKRPLPIPPVTR (modifications not checked) […] |  |  |  | rate of progesterone-induced maturation of Xenopus laevis oocytes (germinal vesicle breakdown) [2]: 1 h |
